{"source": "patent US8551742B2", "about": "(priority 2007, dated 2013)", "molecules": {"B1": {"name": "Gly 77 Val (protein, UniProt P0A817 2-384, looked up, variant G77V)", "S-adenosylmethionine synthase": "AKHLFTSESVSEGHPDKIADQISDAVLDAILEQDPKARVACETYVKTGMVLVGGEITTSAWVDIEEITRNTVREIVYVHSDMGFDANSCAVLSAIGKQSPDINQGVDRADPLEQGAGDQGLMFGYATNETDVLMPAPITYAHRLVQRQAEVRKNGTLPWLRPDAKSQVTFQYDDGKIVGIDAVVLSTQHSEEIDQKSLQEAVMEEIIKPILPAEWLTSATKFFINPTGRFVIGGPMGDCGLTGRKIIVDTYGGMARHGGGAFSGKDPSKVDRSAAYAARYVAKNIVAAGLADRCEIQVSYAIGVAEPTSIMVETFGTEKVPSEQLTLLVREFFDLRPYGLIQMLDLLHPIYKETAAYGHFGREHFPWEKTDKAQLLRDAAGLK"}, "B2": {"name": "WT control: wild type C-terminal His-tagged MetK protein used as a control (protein, UniProt P0A817 2-384, looked up)", "S-adenosylmethionine synthase": "AKHLFTSESVSEGHPDKIADQISDAVLDAILEQDPKARVACETYVKTGMVLVGGEITTSAWVDIEEITRNTVREIGYVHSDMGFDANSCAVLSAIGKQSPDINQGVDRADPLEQGAGDQGLMFGYATNETDVLMPAPITYAHRLVQRQAEVRKNGTLPWLRPDAKSQVTFQYDDGKIVGIDAVVLSTQHSEEIDQKSLQEAVMEEIIKPILPAEWLTSATKFFINPTGRFVIGGPMGDCGLTGRKIIVDTYGGMARHGGGAFSGKDPSKVDRSAAYAARYVAKNIVAAGLADRCEIQVSYAIGVAEPTSIMVETFGTEKVPSEQLTLLVREFFDLRPYGLIQMLDLLHPIYKETAAYGHFGREHFPWEKTDKAQLLRDAAGLK", "modifications": "C-terminal His tag"}, "B3": {"name": "Asp 118 Asn (protein, UniProt P0A817 2-384, looked up, variant D118N)", "S-adenosylmethionine synthase": "AKHLFTSESVSEGHPDKIADQISDAVLDAILEQDPKARVACETYVKTGMVLVGGEITTSAWVDIEEITRNTVREIGYVHSDMGFDANSCAVLSAIGKQSPDINQGVDRADPLEQGAGNQGLMFGYATNETDVLMPAPITYAHRLVQRQAEVRKNGTLPWLRPDAKSQVTFQYDDGKIVGIDAVVLSTQHSEEIDQKSLQEAVMEEIIKPILPAEWLTSATKFFINPTGRFVIGGPMGDCGLTGRKIIVDTYGGMARHGGGAFSGKDPSKVDRSAAYAARYVAKNIVAAGLADRCEIQVSYAIGVAEPTSIMVETFGTEKVPSEQLTLLVREFFDLRPYGLIQMLDLLHPIYKETAAYGHFGREHFPWEKTDKAQLLRDAAGLK"}, "B4": {"name": "Cys 90 Ser (protein, UniProt P0A817 2-384, looked up, variant C90S)", "S-adenosylmethionine synthase": "AKHLFTSESVSEGHPDKIADQISDAVLDAILEQDPKARVACETYVKTGMVLVGGEITTSAWVDIEEITRNTVREIGYVHSDMGFDANSSAVLSAIGKQSPDINQGVDRADPLEQGAGDQGLMFGYATNETDVLMPAPITYAHRLVQRQAEVRKNGTLPWLRPDAKSQVTFQYDDGKIVGIDAVVLSTQHSEEIDQKSLQEAVMEEIIKPILPAEWLTSATKFFINPTGRFVIGGPMGDCGLTGRKIIVDTYGGMARHGGGAFSGKDPSKVDRSAAYAARYVAKNIVAAGLADRCEIQVSYAIGVAEPTSIMVETFGTEKVPSEQLTLLVREFFDLRPYGLIQMLDLLHPIYKETAAYGHFGREHFPWEKTDKAQLLRDAAGLK"}, "B5": {"name": "Cys 90 Ala (protein, UniProt P0A817 2-384, looked up, variant C90A)", "S-adenosylmethionine synthase": "AKHLFTSESVSEGHPDKIADQISDAVLDAILEQDPKARVACETYVKTGMVLVGGEITTSAWVDIEEITRNTVREIGYVHSDMGFDANSAAVLSAIGKQSPDINQGVDRADPLEQGAGDQGLMFGYATNETDVLMPAPITYAHRLVQRQAEVRKNGTLPWLRPDAKSQVTFQYDDGKIVGIDAVVLSTQHSEEIDQKSLQEAVMEEIIKPILPAEWLTSATKFFINPTGRFVIGGPMGDCGLTGRKIIVDTYGGMARHGGGAFSGKDPSKVDRSAAYAARYVAKNIVAAGLADRCEIQVSYAIGVAEPTSIMVETFGTEKVPSEQLTLLVREFFDLRPYGLIQMLDLLHPIYKETAAYGHFGREHFPWEKTDKAQLLRDAAGLK"}, "B6": {"name": "WT Untagged: untagged wild type MetK protein, Markham lab (protein, UniProt P0A817 2-384, looked up)", "S-adenosylmethionine synthase": "AKHLFTSESVSEGHPDKIADQISDAVLDAILEQDPKARVACETYVKTGMVLVGGEITTSAWVDIEEITRNTVREIGYVHSDMGFDANSCAVLSAIGKQSPDINQGVDRADPLEQGAGDQGLMFGYATNETDVLMPAPITYAHRLVQRQAEVRKNGTLPWLRPDAKSQVTFQYDDGKIVGIDAVVLSTQHSEEIDQKSLQEAVMEEIIKPILPAEWLTSATKFFINPTGRFVIGGPMGDCGLTGRKIIVDTYGGMARHGGGAFSGKDPSKVDRSAAYAARYVAKNIVAAGLADRCEIQVSYAIGVAEPTSIMVETFGTEKVPSEQLTLLVREFFDLRPYGLIQMLDLLHPIYKETAAYGHFGREHFPWEKTDKAQLLRDAAGLK"}, "B7": {"name": "w.t.: wild type E. coli MetA enzyme (homoserine succinyltransferase), C-terminus His tag, purified (protein, UniProt P07623 2-309, looked up)", "Homoserine …": "PIRVPDELPAVNFLREENVFVMTTSRASGQEIRPLKVLILNLMPKKIETENQFLRLLSNSPLQVDIQLLRIDSRESRNTPAEHLNNFYCNFEDIQDQNFDGLIVTGAPLGLVEFNDVAYWPQIKQVLEWSKDHVTSTLFVCWAVQAALNILYGIPKQTRTEKLSGVYEHHILHPHALLTRGFDDSFLAPHSRYADFPAALIRDYTDLEILAETEEGDAYLFASKDKRIAFVTGHPEYDAQTLAQEFFRDVEAGLDPDVPYNYFPHNDPQNTPRASWRSHGNLLFTNWLNYYVYQITPYDLRHMNPTLD", "modifications": "C-terminal His tag", "notes": "wild type E. coli MetA enzyme (homoserine succinyltransferase), C-terminus His tag, purified"}, "B8": {"name": "#11 (protein, listed as Escherichia coli)", "chain": "MPIRVPDELPAVNFLREENVFVMTTSRAPGQEIRPLKVLILNLMPKKIETENQFLRLLSNSPLQVDIQLLRIDSRESRNTPAEHLNNFYCNFEDIQDQNFDGLIVTGAPLGLVGFNDVAYWPQIKQVLEWSKDHVTSTLSVCWAVQAALNILYGIPKQTRTEKLSGVYEHHILHPHALLTRGFDDSFLAPHSRYADFPAALIRDYTDLEILAETEEGDAYLFASKDKRIAFVTGHPEYDAQTLAQEFFRDVEAGLDPDVPYNYFPHNDPQNTPRASWRSHGNLLFTNWLNYYVYQITPYDLRHMNPTLD"}}, "key": {"MetK [1]": {"system": "MetK", "test": "MetK mutants radioactive assay in vitro ([methyl-14C]methionine to SAMe)", "assay_type": "biochemical, E. coli", "settings": "5 minute reaction time; C-terminal His tagged proteins unless untagged", "description": "The metK gene from E. coli (Accession number AP—003499 or BAE77005) was cloned and overexpressed with either an N-terminal or a C-terminal His tag in pET28b vector. Site directed mutagenesis was performed using the C-terminal His tagged metK clone to generate the desired mutants. Expression of the mutant MetK proteins was confirmed.\nThe MetK mutants were purified (using the C-terminal His tag) and assayed in vitro. The wild type C-terminal His-tagged MetK protein was used as a control. The mutants were assayed using a radioactive assay. The assay conditions were as follows: • Assay Mix: • 1.0 mL 0.5 M HEPES/KOH, pH 8.0 • 0.5 mL 1.0 M KCl • 0.2 mL 1.0 M MgCl2 • 1.0 mL 100 mM ATP (disodium salt, pH 8.0 with KOH) • 0.1 mL 50 mM methionine • 0.1 mL NEN [methyl-^14C]methionine • 6.6 mL H2O • 25 mM EDTA pH 8.0 stop for assays.\n45 μl of assay mix was added to an Eppendorf tube and 5 μL of enzyme (normalized data shown in Table 13. The reaction was incubated at room temperature (or 25° C.) for a desired period (1 to 10 minutes). The reaction was stopped with the addition of 150 μL of 25 mM EDTA. 100 μL of the reaction was spotted onto a 2.5 cm diameter Whatman P-81 phosphocellulose filter circle (labeled in pencil). The filters were washed with 3 L of distilled water, air-dried and placed in scintillation vials with aquasol. The emissions were counted using a window that extends from ^14C to about 0. Assay efficiency and quench levels were determined by adding a known amount of counts of pure ^14C-SAM and processing through the whole procedure. Backgrounds are typically<100 cpm (total counts ca. 10^5 cpm per reaction)."}, "MetK [2]": {"system": "MetK", "settings": "literature reference; cited from earlier work"}, "MetA": {"system": "MetA", "test": "In-vitro characterization of purified mutant and wild type MetA enzymes (assay of Lawrence, modified)", "assay_type": "biochemical, E. coli", "description": "PCR was used to amplify and then clone the five metA mutant genes identified as pCL-A#10, pCL-A#11, pCL-A#32, pCL-A#37, and pCL-A#41, into the pET30a vector. All constructs were subjected to DNA sequence analysis to confirm the presence of mutations. The genes were cloned with a C-terminus His tag for enzyme purification. The enzymes were overexpressed, purified and the activity was measured in the presence of different levels of methionine and SAMe, as described by Lawrence, J. Bacteriol., 109:8-11, 1972. The only modifications to the assay were that multiple points were taken and that the reaction was quenched with guanidine."}, "[3]": {"settings": "control (no Met or SAM), U = formation of 1 μmole of CoA per minute at room temperature"}}}
{"molecule": "B1", "values": [{"measurement": "Activity (CPM SAMe/ μg purified protein/min)", "setting": "MetK [1]", "value": "6.9 CPM SAMe/ μg purified protein/min"}]}
{"molecule": "B2", "values": [{"measurement": "Activity (CPM SAMe/ μg purified protein/min)", "setting": "MetK [1]", "value": "995.4 CPM SAMe/ μg purified protein/min"}]}
{"molecule": "B3", "values": [{"measurement": "Expected Effect on SAMe synth: kcat reduction", "setting": "MetK [2]", "value": "kcat reduction of ~ 103 fold"}, {"measurement": "Activity (CPM SAMe/ μg purified protein/min)", "setting": "MetK [1]", "value": "1.3 CPM SAMe/ μg purified protein/min"}]}
{"molecule": "B4", "values": [{"measurement": "Expected Effect on SAMe synth: % of WT activity", "setting": "MetK [2]", "value": "Only 10% of WT"}, {"measurement": "Activity (CPM SAMe/ μg purified protein/min)", "setting": "MetK [1]", "value": "23.2 CPM SAMe/ μg purified protein/min"}]}
{"molecule": "B5", "values": [{"measurement": "Expected Effect on SAMe synth: % of WT activity", "setting": "MetK [2]", "value": "Only 10% of WT"}, {"measurement": "Activity (CPM SAMe/ μg purified protein/min)", "setting": "MetK [1]", "value": "Same as WT"}]}
{"molecule": "B6", "values": [{"measurement": "Activity (CPM SAMe/ μg purified protein/min)", "setting": "MetK [1]", "value": "5600 CPM SAMe/ μg purified protein/min"}]}
{"molecule": "B7", "values": [{"measurement": "% of specific activity retention", "setting": "MetA; control", "value": 100, "unit": "%"}, {"measurement": "Specific activity (U/mg)", "setting": "MetA; [3]", "value": 386, "unit": "U/mg"}, {"measurement": "% of specific activity retention", "setting": "MetA; w/10 mM SAM", "value": 2.9, "unit": "%"}, {"measurement": "Specific activity (U/mg)", "setting": "MetA; w/10 mM SAM", "value": 11, "unit": "U/mg"}, {"measurement": "% of specific activity retention", "setting": "MetA; w/ 100 mM Met", "value": 7.6, "unit": "%"}, {"measurement": "Specific activity (U/mg)", "setting": "MetA; w/ 100 mM Met", "value": 29, "unit": "U/mg"}]}
{"molecule": "B8", "values": [{"measurement": "% of specific activity retention", "setting": "MetA; control", "value": 100, "unit": "%"}, {"measurement": "Specific activity (U/mg)", "setting": "MetA; [3]", "value": 479, "unit": "U/mg"}, {"measurement": "feed-back inhibition resistance compared to the wild type enzyme", "setting": "MetA; methionine and SAM inhibition", "value": "most resistant"}, {"measurement": "% of specific activity retention", "setting": "MetA; w/10 mM SAM", "value": 82, "unit": "%"}, {"measurement": "Specific activity (U/mg)", "setting": "MetA; w/10 mM SAM", "value": 395, "unit": "U/mg"}, {"measurement": "% of specific activity retention", "setting": "MetA; w/ 100 mM Met", "value": 94, "unit": "%"}, {"measurement": "Specific activity (U/mg)", "setting": "MetA; w/ 100 mM Met", "value": 451, "unit": "U/mg"}, {"measurement": "% of specific activity retention", "setting": "MetA; w/ 300 mM Met", "value": 56, "unit": "%"}, {"measurement": "Specific activity (U/mg)", "setting": "MetA; w/ 300 mM Met", "value": 282, "unit": "U/mg"}, {"measurement": "% of specific activity retention", "setting": "MetA; w/ 300 mM Met, listed as metA #11", "value": 55, "unit": "%"}]}
